Assay results published in paper PMC8910563, “BdGUCD1 and Cyclic GMP Are Required for Responses of Brachypodium distachyon to Fusarium pseudograminearum in the Mechanism Involving Jasmonate” (International Journal of Molecular Sciences, 2022).

Substrate: Nc1ncnc2c1ncn2[C@@H]1O[C@H](COP(=O)(O)OP(=O)(O)OP(=O)(O)O)[C@@H](O)[C@H]1O
Assay: adenylyl cyclase assay, cAMP by LC-MS/MS
Format: biochemical, Brachypodium distachyon

B1: BdGUCD1 (Brachypodium distachyon) (protein)
chain: MVLRTLGVDCCDGIADLGKLCHTTSIWTVDLAYLLHKFRVSFSFFTVTIGANPQYSAETFYREQLQEDIDRVDELFGKAVDAGISIQCRSISAYDIAFLLLSGHCIAIALVDKSKLISSWMNDVHDVQQFNEDSDYMGHYVVICGYDADACEFEIRDPASSRKREMVPMKSLEEARKSFGTDEDILLVSLTGKNGMKLSRKLPDSSL
notes: truncated fragment Met62-Leu268 (207 residues; full length 268 aa), N-terminal GST fusion kept (pGEX-6P-2), ~55 kDa, from E. coli BL21(DE3)pLysS
B1 showed a Km of 0.32 mM.
